Each block holds one molecule with its values, some of them ahead of it.
How the values were obtained:
[1] = system: GFP-14-3-3β and its binding proteins; experiment: GFP-14-3-3β co-IP with LC-MS/MS label-free quantification, untreated versus PP1c-treated; parameters: species or system human
GFP-14-3-3β = GFP-14-3-3β co-IP with LC-MS/MS, untreated GFP-14-3-3β versus GFP control (14-3-3 interactome); type: binding, human
[2] = PP1 vs untreated, LFQ intensities, replicates 1-3
[3] = untreated vs GFP, LFQ intensities, replicates 1-3

Difference (log2), PP1 vs untreated [1, 2]: -0.9107 log2
B2: HSD17B4 (protein, UniProt P51659 1-736, looked up)
Peroxisomal multifunctional …: MGSPLRFDGRVVLVTGAGAGLGRAYALAFAERGALVVVNDLGGDFKGVGKGSLAADKVVEEIRRRGGKAVANYDSVEEGEKVVKTALDAFGRIDVVVNNAGILRDRSFARISDEDWDIIHRVHLRGSFQVTRAAWEHMKKQKYGRIIMTSSASGIYGNFGQANYSAAKLGLLGLANSLAIEGRKSNIHCNTIAPNAGSRMTQTVMPEDLVEALKPEYVAPLVLWLCHESCEENGGLFEVGAGWIGKLRWERTLGAIVRQKNHPMTPEAVKANWKKICDFENASKPQSIQESTGSIIEVLSKIDSEGGVSANHTSRATSTATSGFAGAIGQKLPPFSYAYTELEAIMYALGVGASIKDPKDLKFIYEGSSDFSCLPTFGVIIGQKSMMGGGLAEIPGLSINFAKVLHGEQYLELYKPLPRAGKLKCEAVVADVLDKGSGVVIIMDVYSYSEKELICHNQFSLFLVGSGGFGGKRTSDKVKVAVAIPNRPPDAVLTDTTSLNQAALYRLSGDWNPLHIDPNFASLAGFDKPILHGLCTFGFSARRVLQQFADNDVSRFKAIKARFAKPVYPGQTLQTEMWKEGNRIHFQTKVQETGDIVISNAYVDLAPTSGTSAKTPSEGGKLQSTFVFEEIGRRLKDIGPEVVKKVNAVFEWHITKGGNIGAKWTIDLKSGSGKVYQGPAKGAADTTIILSDEDFMEVVLGKLDPQKAFFSGRLKARGNIMLSQKLQMILKDYAKL
Difference (log2), untreated vs GFP (GFP-14-3-3β; [3]): -0.9814 log2

Difference (log2), PP1 vs untreated ([1]; log2 difference, pairwise comparison PP1 vs untreated, label-free quantification, 3 replicates each): 1.645
B4: TMEM33 (protein, UniProt P57088 2-247, looked up)
Transmembrane protein 33: ADTTPNGPQGAGAVQFMMTNKLDTAMWLSRLFTVYCSALFVLPLLGLHEAASFYQRALLANALTSALRLHQRLPHFQLSRAFLAQALLEDSCHYLLYSLIFVNSYPVTMSIFPVLLFSLLHAATYTKKVLDARGSNSLPLLRSVLDKLSANQQNILKFIACNEIFLMPATVFMLFSGQGSLLQPFIYYRFLTLRYSSRRNPYCRTLFNELRIVVEHIIMKPACPLFVRRLCLQSIAFISRLAPTVP
Difference (log2), untreated vs GFP (GFP-14-3-3β; log2 difference, pairwise comparison untreated vs GFP, label-free quantification, 3 replicates each): 0.3842

Difference (log2), PP1 vs untreated [1, 2]: -0.8983 log2
B5: HNRNPA3 (protein, UniProt P51991 1-378, looked up)
Heterogeneous nuclear …: MEVKPPPGRPQPDSGRRRRRRGEEGHDPKEPEQLRKLFIGGLSFETTDDSLREHFEKWGTLTDCVVMRDPQTKRSRGFGFVTYSCVEEVDAAMCARPHKVDGRVVEPKRAVSREDSVKPGAHLTVKKIFVGGIKEDTEEYNLRDYFEKYGKIETIEVMEDRQSGKKRGFAFVTFDDHDTVDKIVVQKYHTINGHNCEVKKALSKQEMQSAGSQRGRGGGSGNFMGRGGNFGGGGGNFGRGGNFGGRGGYGGGGGGSRGSYGGGDGGYNGFGGDGGNYGGGPGYSSRGGYGGGGPGYGNQGGGYGGGGGYDGYNEGGNFGGGNYGGGGNYNDFGNYSGQQQSNYGPMKGGSFGGRSSGSPYGGGYGSGGGSGGYGSRRF
Difference (log2), untreated vs GFP (GFP-14-3-3β; [3]): 1.1202 log2

Further lines, the molecule ahead of its results:

B1: FLII (protein, UniProt Q13045 1-1269, looked up)
Protein flightless-1 homolog: MEATGVLPFVRGVDLSGNDFKGGYFPENVKAMTSLRWLKLNRTGLCYLPEELAALQKLEHLSVSHNNLTTLHGELSSLPSLRAIVARANSLKNSGVPDDIFKLDDLSVLDLSHNQLTECPRELENAKNMLVLNLSHNSIDTIPNQLFINLTDLLYLDLSENRLESLPPQMRRLVHLQTLVLNGNPLLHAQLRQLPAMTALQTLHLRSTQRTQSNLPTSLEGLSNLADVDLSCNDLTRVPECLYTLPSLRRLNLSSNQITELSLCIDQWVHVETLNLSRNQLTSLPSAICKLSKLKKLYLNSNKLDFDGLPSGIGKLTNLEEFMAANNNLELVPESLCRCPKLRKLVLNKNHLVTLPEAIHFLTEIEVLDVRENPNLVMPPKPADRAAEWYNIDFSLQNQLRLAGASPATVAAAAAAGSGPKDPMARKMRLRRRKDSAQDDQAKQVLKGMSDVAQEKNKKQEESADARAPSGKVRRWDQGLEKPRLDYSEFFTEDVGQLPGLTIWQIENFVPVLVEEAFHGKFYEADCYIVLKTFLDDSGSLNWEIYYWIGGEATLDKKACSAIHAVNLRNYLGAECRTVREEMGDESEEFLQVFDNDISYIEGGTASGFYTVEDTHYVTRMYRVYGKKNIKLEPVPLKGTSLDPRFVFLLDRGLDIYVWRGAQATLSSTTKARLFAEKINKNERKGKAEITLLVQGQELPEFWEALGGEPSEIKKHVPEDFWPPQPKLYKVGLGLGYLELPQINYKLSVEHKQRPKVELMPRMRLLQSLLDTRCVYILDCWSDVFIWLGRKSPRLVRAAALKLGQELCGMLHRPRHATVSRSLEGTEAQVFKAKFKNWDDVLTVDYTRNAEAVLQSPGLSGKVKRDAEKKDQMKADLTALFLPRQPPMSLAEAEQLMEEWNEDLDGMEGFVLEGKKFARLPEEEFGHFYTQDCYVFLCRYWVPVEYEEEEKKEDKEEKAEGKEGEEATAEAEEKQPEEDFQCIVYFWQGREASNMGWLTFTFSLQKKFESLFPGKLEVVRMTQQQENPKFLSHFKRKFIIHRGKRKAVQGAQQPSLYQIRTNGSALCTRCIQINTDSSLLNSEFCFILKVPFESEDNQGIVYAWVGRASDPDEAKLAEDILNTMFDTSYSKQVINEGEEPENFFWVGIGAQKPYDDDAEYMKHTRLFRCSNEKGYFAVTEKCSDFCQDDLADDDIMLLDNGQEVYMWVGTQTSQVEIKLSLKACQVYIQHMRSKEHERPRRLRLVRKGNEQHAFTRCFHAWSAFCKALA
Difference (log2), PP1 vs untreated [1, 2]: -0.8907 log2
Difference (log2), untreated vs GFP (GFP-14-3-3β; [3]): 1.165 log2

B3: DBN1 (protein, UniProt Q16643 2-649, looked up)
Drebrin: AGVSFSGHRLELLAAYEEVIREESAADWALYTYEDGSDDLKLAASGEGGLQELSGHFENQKVMYGFCSVKDSQAALPKYVLINWVGEDVPDARKCACASHVAKVAEFFQGVDVIVNASSVEDIDAGAIGQRLSNGLARLSSPVLHRLRLREDENAEPVGTTYQKTDAAVEMKRINREQFWEQAKKEEELRKEEERKKALDERLRFEQERMEQERQEQEERERRYREREQQIEEHRRKQQTLEAEEAKRRLKEQSIFGDHRDEEEETHMKKSESEVEEAAAIIAQRPDNPREFFKQQERVASASAGSCDVPSPFNHRPGSHLDSHRRMAPTPIPTRSPSDSSTASTPVAEQIERALDEVTSSQPPPLPPPPPPAQETQEPSPILDSEETRAAAPQAWAGPMEEPPQAQAPPRGPGSPAEDLMFMESAEQAVLAAPVEPATADATEIHDAADTIETDTATADTTVANNVPPAATSLIDLWPGNGEGASTLQGEPRAPTPPSGTEVTLAEVPLLDEVAPEPLLPAGEGCATLLNFDELPEPPATFCDPEEVEGESLAAPQTPTLPSALEELEQEQEPEPHLLTNGETTQKEGTQASEGYFSQSQEEEFAQSEELCAKAPPPVFYNKPPEIDITCWDADPVPEEEEGFEGGD
Difference (log2), PP1 vs untreated [1, 2]: -0.9011 log2
Difference (log2), untreated vs GFP (GFP-14-3-3β; [3]): -0.06481 log2

— PMC7367873, “Dissecting the sequence determinants for dephosphorylation by the catalytic subunits of phosphatases PP1 and PP2A” (Nature Communications, 2020)
